Earlier results in paper PMC6783463.
pKd: −log10 of the molar value.

Biological target: PTH (15-34) 15-34 (Homo sapiens) (UniProt P01270)
Settings: cited from earlier work

UniProt P01270, sequence (P01270 15-34): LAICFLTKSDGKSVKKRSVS

For PTH1R ECD (from UniProt Q03431), the pKd is listed as 6.00.
